Values quoted from earlier work, collected in PMC7585440.

Assays:
LRP6 E1E2 (Homo sapiens) = LRP6 E1E2 (Homo sapiens) (UniProt O75581); experiment: biolayer interferometry
LRP6 E1 (Homo sapiens) = LRP6 E1 (Homo sapiens) (UniProt O75581); experiment: ITC
Chain of LRP6 E1 (Homo sapiens) (O75581 20-326): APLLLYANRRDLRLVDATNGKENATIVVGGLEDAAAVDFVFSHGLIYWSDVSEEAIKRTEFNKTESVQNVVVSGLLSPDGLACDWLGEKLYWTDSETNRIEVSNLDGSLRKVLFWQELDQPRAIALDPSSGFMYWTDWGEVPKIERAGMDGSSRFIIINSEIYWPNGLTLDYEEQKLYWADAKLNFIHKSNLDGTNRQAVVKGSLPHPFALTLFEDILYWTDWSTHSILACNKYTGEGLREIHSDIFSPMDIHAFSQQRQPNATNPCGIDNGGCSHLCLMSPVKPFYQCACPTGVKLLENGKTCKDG

Chain of SOST loop 2 peptide loop 2 (Q9BQB4 110-130): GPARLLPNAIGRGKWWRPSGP
Chain of LRP6 E1E2 (Homo sapiens) (O75581 20-630): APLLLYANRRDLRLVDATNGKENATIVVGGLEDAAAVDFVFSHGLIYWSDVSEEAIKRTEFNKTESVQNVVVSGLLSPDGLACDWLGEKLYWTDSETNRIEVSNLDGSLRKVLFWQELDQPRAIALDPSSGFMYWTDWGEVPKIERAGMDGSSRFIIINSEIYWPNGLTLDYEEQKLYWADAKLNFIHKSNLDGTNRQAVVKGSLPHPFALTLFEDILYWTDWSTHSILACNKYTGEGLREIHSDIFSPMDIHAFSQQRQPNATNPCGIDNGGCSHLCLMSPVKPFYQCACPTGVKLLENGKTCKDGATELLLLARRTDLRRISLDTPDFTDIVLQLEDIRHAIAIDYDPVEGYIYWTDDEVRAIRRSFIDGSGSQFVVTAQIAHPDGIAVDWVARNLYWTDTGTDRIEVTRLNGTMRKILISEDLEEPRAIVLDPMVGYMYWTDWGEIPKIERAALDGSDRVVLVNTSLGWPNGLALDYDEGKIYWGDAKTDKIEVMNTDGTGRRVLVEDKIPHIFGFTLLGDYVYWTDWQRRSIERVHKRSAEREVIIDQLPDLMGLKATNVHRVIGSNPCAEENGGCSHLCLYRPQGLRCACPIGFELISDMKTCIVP
Chain of SOST (Q9BQB4 24-213): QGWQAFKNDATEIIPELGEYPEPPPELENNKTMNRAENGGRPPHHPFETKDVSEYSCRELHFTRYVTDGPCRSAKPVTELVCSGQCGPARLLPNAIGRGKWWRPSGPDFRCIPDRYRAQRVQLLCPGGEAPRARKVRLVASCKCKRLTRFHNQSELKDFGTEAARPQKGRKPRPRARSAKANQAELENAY

Substance	Kd (LRP6 E1E2 (Homo sapiens)) [µM]	Kd (LRP6 E1 (Homo sapiens)) [µM]
SOST (from UniProt Q9BQB4)	0.0068	–
SOST loop 2 peptide loop 2 (from UniProt Q9BQB4)	–	9
